± gives the standard deviation of the averaged measurements.
System: ATP
Assay: switch fluorescence ratio, 500 uM ATP over buffer (Cy3 cluster intensity, sum of 5 cycles each) (fold (ratio)); higher = stronger signal-on switching upon ATP binding; sequences stand for … in TCGTCGGCAGCGTCAGATGTGTATAAGAGACAGTTTTTTTTTTTTTTTTTTTTTTTTT…TC
Conditions: aptamer strand: ATP DNA aptamer (quencher-CACCTGGGGGAGTATTGCGGAGGAAGG + anchor), 100 nM annealed; ATP concentration: 500 uM
Procedure, shortened: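 Clusters carrying Cy3-labelled switching strands on a modified Illumina MiSeq flow-cell were annealed to 100 nM quencher-labelled ATP aptamer and imaged in selection buffer. They were imaged again after 15 min with 500 uM ATP at 22 °C, over five buffer/ATP cycles with NaOH stripping and re-annealing in between. For each cluster, the fluorescence ratio is the summed Cy3 intensity of the target cycles divided by that of the buffer cycles, averaged per switch-domain sequence. Clusters outside 100-1000 RFU were left out.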
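Note: ATP exposure 15 min at 22 °C before imaging.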

Sequence | switch fluorescence ratio
GACGTAATTA | 1.5 ± 0.045
GACGTATATG | 0.973 ± 0.048
GACGTCAGGG | 0.997 ± 0.052
GACGTGGGGC | 1.131 ± 0.0064
GACGTGGTAG | 1.03 ± 0.016
GACGTGTAGT | 1.02 ± 0.025
GACGTTCTGT | 1.03 ± 0.063
GACGTTTTGT | 0.96221 ± 0.00058
GACTAAAGGT | 1.01 ± 0.013
GACTAAAGTA | 1.05 ± 0.074
GACTAAGACT | 1.01 ± 0.026
GACTACTAGC | 1.05 ± 0.045
GACTAGAGGG | 0.99 ± 0.034
GACTAGGGGT | 1.005 ± 0.0078
GACTCCAGGC | 1.22 ± 0.069
GACTCTGGGA | 1.11 ± 0.027
GACTCTTGCG | 0.964 ± 0.029
GACTGATACC | 1.17 ± 0.035
GACTGCTGTG | 1.012 ± 0.0085
GACTGGGGTT | 0.9891 ± 0.0059
GACTGGTAAT | 1.047 ± 0.0072
GACTGTCGG | 1.002 ± 0.0068
GACTGTGGCA | 1.013 ± 0.0021
GACTGTTAAG | 1.02 ± 0.017
GACTGTTACA | 1.2 ± 0.017

Sequence | switch fluorescence ratio
GACTGTTGTC | 0.9972 ± 0.0059
GACTTAGCTT | 1.046 ± 0.0055
GACTTATGGG | 1.04 ± 0.033
GACTTATTAT | 1.001 ± 0.0041
GACTTATTGG | 1.02 ± 0.032
GACTTATTTA | 1.01 ± 0.043
GACTTGCTGA | 1 ± 0.049
GACTTGGTGC | 1.06 ± 0.023
GACTTTGGGG | 1 ± 0.013
GACTTTGTTC | 0.983 ± 0.012
GACTTTTATT | 0.989 ± 0.017
GACTTTTGTA | 0.9812 ± 0.0045
GACTTTTTGC | 0.933 ± 0.055
GACTTTTTTC | 0.9748 ± 0.0053
GAGAAAATCG | 1 ± 0.043
GAGAAAATGG | 1.003 ± 0.0039
GAGAAATGGG | 1.07 ± 0.038
GAGAAATTCC | 1.07 ± 0.021
GAGAACAGTG | 1.02 ± 0.041
GAGAACGAGG | 0.983 ± 0.023
GAGAAGAGGC | 1.13 ± 0.023
GAGAAGCGGT | 1.004 ± 0.008
GAGAAGCTAT | 0.987 ± 0.015
GAGAAGGGCA | 1.02 ± 0.05
GAGAAGTTAG | 1.02 ± 0.023

Sequence | switch fluorescence ratio
GAGAAGTTGA | 1 ± 0.02
GAGAATTAGG | 0.964 ± 0.039
GAGACATTAC | 1.61 ± 0.04
GAGACCAATC | 1.023 ± 0.008
GAGACCCTAT | 1.029 ± 0.0074
GAGACGACCA | 1.15 ± 0.029
GAGACGCTTA | 1.069 ± 0.0064
GAGACGTTTT | 0.97 ± 0.015
GAGAGAGGGA | 1.01 ± 0.034
GAGAGATCG | 0.982 ± 0.021
GAGAGATTAT | 0.9787 ± 0.002
GAGAGCCGTC | 1.08 ± 0.13
GAGAGCGAGT | 1.03 ± 0.036
GAGAGCTATA | 1.07 ± 0.044
GAGAGCTCAC | 1.01 ± 0.021
GAGAGGACAT | 0.996 ± 0.011
GAGAGGGAAG | 1.004 ± 0.0077
GAGAGGGCAG | 0.9869 ± 0.0072
GAGAGGGCCT | 0.985 ± 0.038
GAGAGGTTCG | 0.962 ± 0.012
GAGAGGTTTG | 0.9818 ± 0.008
GAGAGTAGAG | 0.992 ± 0.034
GAGAGTATAT | 1.01 ± 0.012
GAGAGTGACT | 0.969 ± 0.0083
GAGAGTGGGC | 1 ± 0.043

Sequence | switch fluorescence ratio
GAGAGTGGTT | 0.998 ± 0.012
GAGAGTTAAG | 0.9677 ± 0.0074
GAGATAGAGG | 1.006 ± 0.0087
GAGATAGGGG | 0.994 ± 0.016
GAGATAGGGT | 1.03 ± 0.013
GAGATCCATG | 1.01 ± 0.038
GAGATCGGGG | 1 ± 0.03
GAGATCGTAT | 0.991 ± 0.017
GAGATCGTGC | 0.96 ± 0.018
GAGATGGAAG | 0.993 ± 0.018
GAGATGGGCA | 1.01 ± 0.06
GAGATGGTTT | 0.997 ± 0.024
GAGATGTTTA | 0.987 ± 0.029
GAGATTAATT | 0.967 ± 0.016
GAGATTCGCC | 1.02 ± 0.054
GAGATTGCAG | 0.974 ± 0.069
GAGATTGCGC | 1.02 ± 0.046
GAGATTGGAG | 0.9892 ± 0.0044
GAGCAGGGGG | 1.01 ± 0.042
GAGCATAGTT | 1.03 ± 0.014
GAGCATGGGA | 1.02 ± 0.012
GAGCCATTTT | 0.991 ± 0.041
GAGCCGGGTA | 0.9982 ± 0.0063
GAGCCTTACT | 1.38 ± 0.26
GAGCGAAAGG | 0.991 ± 0.025

Sequence | switch fluorescence ratio
GAGCGAGCTC | 0.988 ± 0.021
GAGCGGCTTC | 1.027 ± 0.0097
GAGCGGGGGG | 0.969 ± 0.022
GAGCGGGGTG | 1 ± 0.021
GAGCGTAGGG | 0.9537 ± 0.0089
GAGCGTCACG | 1.006 ± 0.0055
GAGCTAAGTT | 0.992 ± 0.012
GAGCTCTTAT | 1 ± 0.038
GAGCTGCGGG | 1.002 ± 0.0021
GAGCTGGGCG | 0.969 ± 0.13
GAGCTGGGTC | 1.02 ± 0.071
GAGCTGTGGG | 0.971 ± 0.039
GAGCTTGTGG | 1.03 ± 0.015
GAGGAAAAGT | 0.997 ± 0.051
GAGGAAAGCA | 0.9815 ± 0.0056
GAGGAAATCA | 0.9877 ± 0.008
GAGGAGCTGG | 0.986 ± 0.051
GAGGAGCTGT | 0.999 ± 0.026
GAGGAGGAAT | 1.01 ± 0.017
GAGGAGGGGT | 0.989 ± 0.039
GAGGATAGGG | 0.9768 ± 0.0037
GAGGATAGGT | 0.98 ± 0.011
GAGGATGGCA | 0.9807 ± 0.0061
GAGGATTCAT | 1.04 ± 0.085
GAGGATTTCA | 0.99698 ± 0.00049

Sequence | switch fluorescence ratio
GAGGCATTGT | 1.05 ± 0.017
GAGGCGACTG | 1.03 ± 0.031
GAGGCTACTG | 0.9901 ± 0.0082
GAGGCTAGTT | 0.9936 ± 0.0047
GAGGCTGGGT | 0.988 ± 0.0081
GAGGGAAATG | 0.997 ± 0.098
GAGGGAACAG | 1.01 ± 0.013
GAGGGACAAT | 0.9882 ± 0.0066
GAGGGACCGT | 0.995 ± 0.025
GAGGGACGAG | 1.05 ± 0.015
GAGGGACTGT | 0.972 ± 0.026
GAGGGATAGC | 0.991 ± 0.025
GAGGGCAGAC | 1.24 ± 0.075
GAGGGCCTTT | 0.968 ± 0.048
GAGGGCGTCA | 0.995 ± 0.027
GAGGGGAACT | 0.995 ± 0.021
GAGGGGAAGA | 0.998 ± 0.031
GAGGGGAGGA | 1.04 ± 0.014
GAGGGGAGTA | 1 ± 0.033
GAGGGGATAT | 1.38 ± 0.59
GAGGGGATCG | 0.967 ± 0.015
GAGGGGATGA | 1.01 ± 0.031
GAGGGGCCTC | 1.03 ± 0.037
GAGGGGGAAA | 1.02 ± 0.031
GAGGGGGAAG | 1 ± 0.049

Sequence | switch fluorescence ratio
GAGGGGGGTG | 1 ± 0.028
GAGGGGGTCC | 1.03 ± 0.069
GAGGGGTATC | 0.96 ± 0.045
GAGGGGTTAC | 1.01 ± 0.05
GAGGGGTTGC | 1.09 ± 0.047
GAGGGGTTTA | 1 ± 0.027
GAGGGTAAGA | 1.02 ± 0.062
GAGGGTCTCT | 0.98005 ± 0.00068
GAGGGTTCGA | 0.987 ± 0.033
GAGGGTTTTA | 1 ± 0.016
GAGGTACGCG | 1.026 ± 0.0062
GAGGTAGGTC | 0.9945 ± 0.0019
GAGGTATTGG | 1.01 ± 0.022
GAGGTCAGTG | 0.974 ± 0.019
GAGGTGCTGA | 1 ± 0.061
GAGGTGTGAC | 1.01 ± 0.039
GAGGTTCAGT | 0.989 ± 0.011
GAGGTTCGCT | 0.979 ± 0.069
GAGGTTGCGG | 0.96 ± 0.036
GAGGTTGGGA | 1.01 ± 0.012
GAGGTTTATA | 0.984 ± 0.043
GAGGTTTGGG | 0.982 ± 0.035
GAGGTTTTTT | 0.987 ± 0.021
GAGTAACCAG | 0.979 ± 0.036
GAGTAAGATT | 1.02 ± 0.025

Sequence | switch fluorescence ratio
GAGTAATGGG | 1.003 ± 0.0098
GAGTACCGAA | 0.969 ± 0.031
GAGTACTAGA | 1.02 ± 0.018
GAGTAGGGGG | 0.993 ± 0.033
GAGTATAATA | 0.997 ± 0.025
GAGTATACGT | 1.022 ± 0.0048
GAGTCAGGGT | 1.02 ± 0.011
GAGTCCGTAC | 1.31 ± 0.017
GAGTCGAGAG | 0.99 ± 0.033
GAGTCTGTCC | 1.019 ± 0.0035
GAGTGACTCG | 1.01 ± 0.014
GAGTGAGGTT | 0.955 ± 0.046
GAGTGATGTT | 0.979 ± 0.012
GAGTGCATTG | 1.01 ± 0.015
GAGTGCCGGT | 1.02 ± 0.023
GAGTGCGTCG | 1.01 ± 0.16
GAGTGCTAAA | 1.01 ± 0.0053
GAGTGCTTGG | 0.973 ± 0.022
GAGTGGGCGG | 0.996 ± 0.071
GAGTGGTTAG | 0.9884 ± 0.0017
GAGTGTGAAA | 0.978 ± 0.035
GAGTGTGGGC | 1.01 ± 0.099
GAGTGTTAGG | 0.996 ± 0.013
GAGTGTTGGT | 1 ± 0.022
GAGTTAAAGT | 1.01 ± 0.014

From the supplement of paper PMC10126150
